Experimental data: paper PMC12052686, “NADK tetramer defective mutants affect lung cancer response to chemotherapy via controlling NADK activity” (Genes & Diseases, 2025)
Changes are numbered by the printed parent chain.

Experiments:
[1] = target: T1, human NADK (cNADK, full-length) (Homo sapiens, UniProt O95544, C349S); assay: isothermal titration calorimetry; type: binding
T1 construct: full-length, modified pET28a, His tag cleaved by TEV, E. coli BL21, HisTrap / Resource Q / Superdex 200, tetramer
T1 sequence (O95544 1-446 C349S): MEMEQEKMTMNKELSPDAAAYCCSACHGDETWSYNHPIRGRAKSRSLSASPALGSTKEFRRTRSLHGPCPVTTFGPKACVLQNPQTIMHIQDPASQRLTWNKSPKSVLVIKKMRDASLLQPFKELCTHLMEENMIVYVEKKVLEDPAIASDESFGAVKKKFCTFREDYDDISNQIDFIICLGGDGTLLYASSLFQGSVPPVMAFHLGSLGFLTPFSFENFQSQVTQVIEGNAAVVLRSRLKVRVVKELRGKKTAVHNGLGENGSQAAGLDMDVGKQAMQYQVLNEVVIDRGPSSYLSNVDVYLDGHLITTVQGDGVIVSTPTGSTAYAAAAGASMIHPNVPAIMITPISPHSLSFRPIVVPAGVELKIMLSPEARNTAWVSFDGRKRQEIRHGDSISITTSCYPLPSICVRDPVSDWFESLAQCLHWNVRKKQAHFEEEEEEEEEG

[2] = target: the molecule itself; assay: cryo-EM structure; single-particle cryo-EM of the purified, substrate-free NADK tetramer (10 mg/mL); 2.54 Å
[3] = target: the molecule itself; assay: SEC; lysates of transfected HEK293T cells with endogenous NADK knocked out, Superdex 200 Increase 10/300 GL, 0.5 mL/min; fractions analysed by immunoblotting

Molecule: NC(=O)c1ccc[n+]([C@@H]2O[C@H](COP(=O)([O-])OP(=O)(O)OC[C@H]3O[C@@H](n4cnc5c(N)ncnc54)[C@H](O)[C@@H]3O)[C@@H](O)[C@H]2O)c1 [NAD^+]
- Kd [1]: 86.9 µM

B1: full-length human NADK (NAD+ kinase), purified tetramer (enzyme, UniProt O95544 1-446, looked up)
chain: T1 sequence (O95544 1-446 C349S) with S349C
notes: Cloned in a modified pET28a vector; the tetramer peak of the Superdex 200 column was collected for cryo-EM; In the map the protomers are visible only from residues 98, 95, 96 and 98; also called cNADK; cytoplasmic NADK; source: E. coli BL21, purified (HisTrap FF, TEV cleavage, Resource Q, Superdex 200 Increase)
- stoichiometry N [2]: 4

B2: N-terminal truncated NADK (95-446) (domain or fragment, human, UniProt O95544 95-446, looked up)
chain: SQRLTWNKSPKSVLVIKKMRDASLLQPFKELCTHLMEENMIVYVEKKVLEDPAIASDESFGAVKKKFCTFREDYDDISNQIDFIICLGGDGTLLYASSLFQGSVPPVMAFHLGSLGFLTPFSFENFQSQVTQVIEGNAAVVLRSRLKVRVVKELRGKKTAVHNGLGENGSQAAGLDMDVGKQAMQYQVLNEVVIDRGPSSYLSNVDVYLDGHLITTVQGDGVIVSTPTGSTAYAAAAGASMIHPNVPAIMITPICPHSLSFRPIVVPAGVELKIMLSPEARNTAWVSFDGRKRQEIRHGDSISITTSCYPLPSICVRDPVSDWFESLAQCLHWNVRKKQAHFEEEEEEEEEG
notes: also called ΔN95; N-terminal truncation mutant; source: HEK293T with endogenous NADK knocked out, transfected, in lysate
- stoichiometry N [3]: 4
